Data published in patent publication EP4527849A1 (Universitätsmedizin der Johannes Gutenberg-Universität Mainz, dated 2025).

B1: chimerized TCR construct 11C/34 (TCR, V domains shown)
V domain 1: EPEVTQTPSHQVTQMGQEVILRCVPISNHLYFYWYRQILGQKVEFLVSFYNNEISEKSEIFDDQFSVERPDGSNFTLKIRSTKLEDSAMYFCASSLRLGWIPGNEQFFGPGTRLTVLE
V domain 2: AQSVTQPDIHITVSEGASLELRCNYSYGATPYLFWYVQSPGQGLQLLLKYFSGDTLVQGIKGFEAEFKRSQSSFNLRKPSVHWSDAAEYFCAVGFMDSSYKLIFGSGTRLLVRP
notes: In the assays the TCR stood as an alpha/beta heterodimer on transduced human T cells whose endogenous TCR was knocked out; also called cTCR 11C/34; TCR 11C/34
B2: chimerized TCR construct 11C/25 (TCR, V domains shown)
V domain 1: EAQVTQNPRYLITVTGKKLTVTCSQNMNHEYMSWYRQDPGLGLRQIYYSMNVEVTDKGDVPEGYKVSRKEKRNFPLILESPSPNQTSLYFCASSLSPAPPSIWSYNEQFFGPGTRLTVLE
V domain 2: AQSVTQLDSQVPVFEEAPVELRCNYSSSVSVYLFWYVQYPNQGLQLLLKYLSGSTLVKGINGFEAEFNKSQTSFHLRKPSVHISDTAEYFCAVSKLAGRRALTFGSGTRLQVQP
notes: In the assays the TCR stood as an alpha/beta heterodimer on transduced human T cells whose endogenous TCR was knocked out; also called cTCR 11C/25; TCR 11C/25

Experiments:
[1] = target: T1, human PD-L1 (Programmed death-ligand 1) (human, UniProt Q9NZQ7 19-290); assay: IFNg-ELISPOT with TCR-transduced T cells and blocking anti-PD-L1 antibodies; binding inferred from recognition
T1 construct: No signal peptide limits are stated; also called CD274; B7-H1

full-length murine PD-L1 = target: T2, full-length murine PD-L1 (murine, UniProt Q9EP73 19-290); assay: IFNg-ELISPOT; TCR-transduced T cells on 293T B2M/CIITA knockout cells transfected with full-length murine PD-L1
T2 construct: whole, on cells; also called mPD-L1; murine homologue of PD-L1

[2] = target: T1, human PD-L1 (Programmed death-ligand 1); assay: IFNg-ELISPOT on 293T B2M/CIITA knockout cells transfected with full-length or single-domain PD-L1 constructs; binding inferred from recognition

T2 sequence (Q9EP73 19-290): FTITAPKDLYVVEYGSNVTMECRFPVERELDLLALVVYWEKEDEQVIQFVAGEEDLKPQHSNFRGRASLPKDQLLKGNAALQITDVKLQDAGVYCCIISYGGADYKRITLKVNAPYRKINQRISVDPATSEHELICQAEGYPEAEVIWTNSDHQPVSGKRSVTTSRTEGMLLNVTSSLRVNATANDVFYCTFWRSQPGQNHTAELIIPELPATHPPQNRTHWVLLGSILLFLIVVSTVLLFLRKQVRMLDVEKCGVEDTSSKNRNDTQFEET
T1 sequence (Q9NZQ7 19-290 limits assumed): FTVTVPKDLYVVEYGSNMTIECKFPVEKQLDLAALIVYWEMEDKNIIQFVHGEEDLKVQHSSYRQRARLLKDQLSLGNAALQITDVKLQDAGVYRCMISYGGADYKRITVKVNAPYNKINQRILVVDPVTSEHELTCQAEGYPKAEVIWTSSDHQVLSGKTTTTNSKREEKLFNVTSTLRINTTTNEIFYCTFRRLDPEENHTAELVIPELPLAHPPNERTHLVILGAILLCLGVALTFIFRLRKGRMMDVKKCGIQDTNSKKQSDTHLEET

| Binder | binding result [1] | binding result (full-length murine PD-L1) | binding result [2] |
| --- | --- | --- | --- |
| B1 | binds | no binding |  |
| B2 |  | no binding | binds |
